From PMC8153938 (ACS Omega, 2021) come the findings set out here.

Series [1] has as its target Unphosphorylated human Protein kinase R (PKR), wild type (human) (UniProt P19525). As to the kind of experiment: AUC.
The series “AUC” deals with the molecule itself. The series can be described thus: AUC.

What is called Kd is the constant that tells how readily two partners part at equilibrium.

As for “Unphosphorylated human Protein kinase R (PKR), wild type (from UniProt P19525 1-551) (enzyme)”, in series [1], the dissociation constant (Kd) was 702 µM.

B1: PKR R107A (enzyme, human, UniProt P19525 1-551, looked up)
chain: MAGDLSAGFFMEELNTYRQKQGVVLKYQELPNSGPPHDRRFTFQVIIDGREFPEGEGRSKKEAKNAAAKLAVEILNKEKKAVSPLLLTTTNSSEGLSMGNYIGLINAIAQKKRLTVNYEQCASGVHGPEGFHYKCKMGQKEYSIGTGSTKQEAKQLAAKLAYLQILSEETSVKSDYLSSGSFATTCESQSNSLVTSTLASESSSEGDFSADTSEINSNSDSLNSSSLLMNGLRNNQRKAKRSLAPRFDLPDMKETKYTVDKRFGMDFKEIELIGSGGFGQVFKAKHRIDGKTYVIKRVKYNNEKAEREVKALAKLDHVNIVHYNGCWDGFDYDPETSDDSLESSDYDPENSKNSSRSKTKCLFIQMEFCDKGTLEQWIEKRRGEKLDKVLALELFEQITKGVDYIHSKKLIHRDLKPSNIFLVDTKQVKIGDFGLVTSLKNDGKRTRSKGTLRYMSPEQISSQDYGKEVDLYALGLILAELLHVCDTAFETSKFFTDLRDGIISDIFDKKEKTLLQKLLSKKPEDRPNTSEILRTLTVWKKSPEKNERHTC
Molecule B1 displayed a dissociation constant (Kd) in “AUC” of 704 µM.
